From article PMC11804907 come the findings set out here.

What all share (test): synthetic bead recruitment assay in embryos (fluorescence intensity at ALFA-tag-Nanobody-coupled beads)
One assay addresses RFP-Cnn (UniProt P54623). To be noted: beads injected into embryos expressing RFP-Cnn and Polo-GFP with mRNA encoding ALFA-tagged Spd-2; beads-only background est. 0.75; parent: est. 2.4; read off a plot.
The next assay addresses Polo-GFP (UniProt P52304). The note with it: beads injected into embryos expressing RFP-Cnn and Polo-GFP with mRNA encoding ALFA-tagged Spd-2; beads-only background est. 1.0; parent: est. 2.0; read off a plot.
Another assay addresses AurA-GFP (UniProt Q27393). To be noted: beads injected into embryos expressing mCherry-TACC and AurA-GFP with mRNA encoding ALFA-tagged Spd-2; beads-only background est. 0.5; parent: est. 2.1; read off a plot.
In the next assay the target is mCherry-TACC (UniProt Q9VN51). To be noted: beads injected into embryos expressing mCherry-TACC and AurA-GFP with mRNA encoding ALFA-tagged Spd-2; beads-only background est. 0.65; parent: est. 2.0; read off a plot.
UniProt Q9VN51, sequence (Q9VN51 entry or part of it): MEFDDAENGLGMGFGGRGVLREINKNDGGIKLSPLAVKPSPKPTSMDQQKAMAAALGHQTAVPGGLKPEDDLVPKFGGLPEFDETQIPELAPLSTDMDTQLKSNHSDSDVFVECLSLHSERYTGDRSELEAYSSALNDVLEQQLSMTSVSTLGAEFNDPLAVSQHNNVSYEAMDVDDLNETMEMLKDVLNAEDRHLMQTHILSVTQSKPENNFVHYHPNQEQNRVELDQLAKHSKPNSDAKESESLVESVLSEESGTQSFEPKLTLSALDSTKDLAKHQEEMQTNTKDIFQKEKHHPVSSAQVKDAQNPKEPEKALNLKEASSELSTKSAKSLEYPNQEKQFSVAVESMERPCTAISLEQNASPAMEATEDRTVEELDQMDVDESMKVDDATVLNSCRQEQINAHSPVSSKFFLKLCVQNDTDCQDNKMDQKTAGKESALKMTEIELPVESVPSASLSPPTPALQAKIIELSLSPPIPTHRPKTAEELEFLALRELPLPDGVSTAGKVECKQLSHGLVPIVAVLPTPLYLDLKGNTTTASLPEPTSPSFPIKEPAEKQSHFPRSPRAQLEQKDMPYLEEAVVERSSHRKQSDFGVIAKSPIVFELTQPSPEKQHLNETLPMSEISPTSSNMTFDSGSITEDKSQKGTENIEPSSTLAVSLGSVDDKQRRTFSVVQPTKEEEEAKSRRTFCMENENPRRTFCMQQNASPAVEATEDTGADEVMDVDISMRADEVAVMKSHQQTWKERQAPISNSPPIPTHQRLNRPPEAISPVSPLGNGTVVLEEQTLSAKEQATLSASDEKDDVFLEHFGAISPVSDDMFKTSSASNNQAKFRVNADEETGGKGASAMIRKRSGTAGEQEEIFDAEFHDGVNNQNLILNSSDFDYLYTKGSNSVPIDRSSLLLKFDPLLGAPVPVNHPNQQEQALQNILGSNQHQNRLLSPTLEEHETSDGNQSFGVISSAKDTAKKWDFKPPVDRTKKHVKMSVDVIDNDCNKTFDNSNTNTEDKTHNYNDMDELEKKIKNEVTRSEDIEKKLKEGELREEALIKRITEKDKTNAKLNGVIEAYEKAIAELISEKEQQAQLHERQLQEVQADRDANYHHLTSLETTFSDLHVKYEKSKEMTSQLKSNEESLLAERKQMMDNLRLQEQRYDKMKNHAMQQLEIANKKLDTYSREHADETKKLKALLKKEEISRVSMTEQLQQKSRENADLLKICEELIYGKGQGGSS

UniProt Q27393, sequence (Q27393 entry or part of it): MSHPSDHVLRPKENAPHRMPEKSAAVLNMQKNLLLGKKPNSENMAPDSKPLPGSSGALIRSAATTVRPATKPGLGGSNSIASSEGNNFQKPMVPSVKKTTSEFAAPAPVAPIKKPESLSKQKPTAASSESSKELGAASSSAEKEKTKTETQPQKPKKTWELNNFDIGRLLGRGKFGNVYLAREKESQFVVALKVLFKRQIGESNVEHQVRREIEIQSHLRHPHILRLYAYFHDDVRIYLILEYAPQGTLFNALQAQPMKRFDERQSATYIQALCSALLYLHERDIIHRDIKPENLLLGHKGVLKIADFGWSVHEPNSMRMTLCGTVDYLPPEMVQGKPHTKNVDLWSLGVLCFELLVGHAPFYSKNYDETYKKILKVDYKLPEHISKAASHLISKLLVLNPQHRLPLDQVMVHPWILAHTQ
UniProt P52304, sequence (P52304 whole entry): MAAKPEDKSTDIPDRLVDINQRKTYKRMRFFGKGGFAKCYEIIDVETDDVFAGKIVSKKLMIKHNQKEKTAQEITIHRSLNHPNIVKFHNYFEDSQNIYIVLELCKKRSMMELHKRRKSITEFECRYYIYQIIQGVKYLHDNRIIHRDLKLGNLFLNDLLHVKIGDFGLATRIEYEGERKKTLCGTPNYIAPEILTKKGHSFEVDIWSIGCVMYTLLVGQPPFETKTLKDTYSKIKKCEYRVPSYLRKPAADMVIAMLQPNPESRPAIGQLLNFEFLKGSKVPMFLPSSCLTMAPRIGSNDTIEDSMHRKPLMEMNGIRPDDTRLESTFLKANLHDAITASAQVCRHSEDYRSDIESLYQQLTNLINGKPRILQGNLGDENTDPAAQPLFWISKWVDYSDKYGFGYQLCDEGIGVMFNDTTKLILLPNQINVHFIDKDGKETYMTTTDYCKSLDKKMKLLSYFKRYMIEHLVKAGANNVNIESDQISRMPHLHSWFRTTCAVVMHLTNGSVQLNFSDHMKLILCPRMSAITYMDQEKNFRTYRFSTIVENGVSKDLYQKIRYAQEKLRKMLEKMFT
UniProt P54623, sequence (P54623 whole entry): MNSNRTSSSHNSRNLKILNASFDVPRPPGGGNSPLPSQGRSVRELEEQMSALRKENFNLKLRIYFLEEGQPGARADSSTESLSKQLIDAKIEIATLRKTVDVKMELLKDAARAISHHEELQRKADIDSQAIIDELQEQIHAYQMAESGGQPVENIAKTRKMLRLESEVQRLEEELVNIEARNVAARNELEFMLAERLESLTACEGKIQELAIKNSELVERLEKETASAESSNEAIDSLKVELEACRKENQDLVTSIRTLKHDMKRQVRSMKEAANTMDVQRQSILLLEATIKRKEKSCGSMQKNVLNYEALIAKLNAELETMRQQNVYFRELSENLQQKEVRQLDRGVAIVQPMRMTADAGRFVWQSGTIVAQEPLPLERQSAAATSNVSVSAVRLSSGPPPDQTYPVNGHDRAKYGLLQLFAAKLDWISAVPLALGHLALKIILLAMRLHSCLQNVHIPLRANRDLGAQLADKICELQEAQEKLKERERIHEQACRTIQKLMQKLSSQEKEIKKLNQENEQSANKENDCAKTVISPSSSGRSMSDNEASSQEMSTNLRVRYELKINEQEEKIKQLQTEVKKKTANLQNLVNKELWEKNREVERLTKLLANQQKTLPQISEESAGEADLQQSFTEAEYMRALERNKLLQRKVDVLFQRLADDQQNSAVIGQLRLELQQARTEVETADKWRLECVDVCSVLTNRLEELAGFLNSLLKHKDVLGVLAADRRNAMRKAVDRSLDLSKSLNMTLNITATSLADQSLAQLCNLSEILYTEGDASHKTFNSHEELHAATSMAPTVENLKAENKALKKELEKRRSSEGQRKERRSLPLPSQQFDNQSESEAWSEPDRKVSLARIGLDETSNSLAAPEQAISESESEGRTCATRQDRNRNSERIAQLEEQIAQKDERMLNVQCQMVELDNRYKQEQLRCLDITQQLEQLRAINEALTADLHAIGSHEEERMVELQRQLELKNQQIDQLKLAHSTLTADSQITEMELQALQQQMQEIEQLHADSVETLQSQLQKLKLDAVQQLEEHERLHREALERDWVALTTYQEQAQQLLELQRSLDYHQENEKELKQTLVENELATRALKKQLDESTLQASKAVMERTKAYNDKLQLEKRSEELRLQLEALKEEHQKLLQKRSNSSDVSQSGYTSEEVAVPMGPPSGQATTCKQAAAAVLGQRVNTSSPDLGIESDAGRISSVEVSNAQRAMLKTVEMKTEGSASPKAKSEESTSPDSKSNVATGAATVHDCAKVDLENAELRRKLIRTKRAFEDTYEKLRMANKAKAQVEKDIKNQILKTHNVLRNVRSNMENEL

On to “WT Spd-2-ALFA (from UniProt Q9VV79) ∆Polo (all 34 S-S/T motifs mutated to T-S/T; individual positions not printed)”, for which the response in the assay with RFP-Cnn worked out at 0.85 A.U; with Polo-GFP, 0.95 A.U; with AurA-GFP it was 2.3 A.U; in the assay with mCherry-TACC it was 2.3 A.U.
